Columns and labels:
HT-29 MTX cells = assay: Cell toxicity, Sytox Green assay; type: cell-based, human; settings: differentiated HT-29 MTX; 1 μg/mL, up to 10 h, serum starved media; Student test NS, p>0.05, n=3
Method: (§1) FIGS. 8A-8D. (FIG. 8A) Cell toxicity of Cy5-MUB70 tested on HT-29-MTX and Hela epithelial cells. Cell survival was assessed using Sytoxgreen dye on cultures exposed to 1 μg/mL Cy5-MUB70 from 0 to 10 h, as indicated. NS indicates P>0.05 (Student's T-test). (FIG. 8B) Rabbit colonic and ileal mucus staining on fixed tissues (PFA 4%), using Cy5-MUB70 (1 μg/mL) (blue). Actin is stained in red (Phall.-RRX). Bar is 50 μm. (FIG. 8C) Human ex vivo colon sample was incubated for 2 h with 1 μg/mL Cy5-MUB70 in a serum-free media. Resulting fluorescent staining was assessed using a two-photons microscope (see Methods). Z-projection, performed using ImageJ software, allows 3D localization of Cy5-MUB70 fluorescence signal. […] Human tissue autofluorescence is detected in the same red channel as Cy5.
(§2) Hela cells were grown in DMEM medium supplemental with 10% FCS. […] Cell viability was determined by staining with Sytox Green (Invitrogen) as described by the manufacturer. […] Fluorescence was measured using a FACS flow cytometer (BD systems) recording at least 10,000 events. Data were analysed with CellQuest Pro software (BD Biosciences), and expressed as percentage survival.
(§3) As Cy5-MUB70 was envisaged to be used on living cells and organs, its cell-toxicity has been evaluated. This probe was incubated on differentiated HT-29 MTX and on Hela cells as cell viability was assessed using a Sytox Green assay (see Methods).

Hela cells = assay: Cell toxicity, Sytox Green assay; type: cell-based, human; settings: 1 μg/mL, up to 10 h, serum starved media, Student test NS, p>0.05, n=3
Method: as §1, §2, §3

[1] = molecular target: T1, human colonic mucus (Muc2) (Homo sapiens, UniProt Q02817); assay: Immunofluorescent staining of human mucus and fixed human colon samples; settings: human colon mucus from ex vivo samples and fixed purified human mucus
T1 construct: Segments of human colon (ascending, descending and sigmoid colon) were obtained from fully informed patients undergoing surgery; from tissue; host or cells: healthy human colon segments (live explants, mucus collected from them, Carnoy- or formol-fixed sections)
Text: FIGS. 4A-4B. Cy5-MUB70 is specifically binding to the glycosylated moiety of Muc2 secreted in the colon mucus layer. (FIG. 4A) Immunodetection of Muc2, Muc5ac, Muc5b and Muc6 (dotblot analysis) on human mucus extracts eluted after a pulldown assay performed with biot-MUB70 on avidin conjugated beads (see Methods). Biotin is used as a negative control. Immunodetection of Muc2 (dotblot analysis) on deglycosylated mucus extracts eluted after a pulldown assay performed with biot-MUB70 on avidin conjugated beads. Non-deglycosylated mucus extract is used as a positive control. (FIG. 4B) Co-localization of Muc2 (green) and Cy5-MUB (blue) observed on fixed (Carnoy) human colon samples. Actin is stained in red (Phall.RRX). Observations are performed using a confocal microscope. Bars is 20 μm.
FIGS. 9A-9B. (FIG. 9A) Co-localization of Muc2 (green) and Cy5-MUB (blue) performed by immunofluorescent detection on human mucus extract collected on ex vivo tissues using an epifluorescent microscope. Bar is 50 μm. […]
For immunofluorescence assay mouse α-MUC2 pAbs (Santa Cruz sc-15334) was diluted 1:1000 and FITC-conjugated rabbit anti-mouse was diluted 1:2000. Host cells were detected with DAPI (nuclei, […]) or using Phalloidin-Rhodamine red X (RRX)-conjugated donkey anti-mouse antibodies (Jackson Immunoresearch Antibodies) as an actin marker (stained red); both were used at a final dilution of 1:1000. […]

guinea pig colonic mucus = assay: Mucus staining on fixed tissues, guinea pig colon; settings: fixed tissue, 1 μg/mL
Method: FIGS. 11A-11C. Mucus staining using Cy5-MUB70 on fixed tissues. (FIG. 11A) Guinea pig colon, (FIG. 11B) rabbit ileum and (FIG. 11C) mouse colon were fixed in PFA 4%. Immunofluorescent staining was performed using Cy5-MUB70 (1 μg/mL) (blue). Actin is stained in red (Phall.-RRX), Muc2 is stained in green (α-Muc2). Observations were performed using a confocal microscope. Bar is 50 μm.
Ex vivo human colon samples were obtained from Dr. E. Labruyère (Institut Pasteur) and tissue processing was performed as described previously and stored in serum free RMPI media (surgical procedure is described herein). Human mucinous carcinoma formamide fixed samples were obtained from Dr. T. Lazure (Hôpitaux Universitaires Paris-Sud, Kremlin-Bicêtre) and Pr. I. Sobhani (Hôpital Henri Mondor, Créteil). Rabbit colon and ileum samples were collected on naïve New Zealand white rabbits weighting 2.5-3 kg and fixed in PFA 3%. Same procedure was applied on intestine samples collected on guinea pigs (Charles River) and C57/B6 mice (Janvier).
Following PFA 4% or Carnoy fixation, as indicated, samples were washed in PBS, incubated at 4° C. in PBS containing 12% sucrose for 90 min, then in PBS with 18% sucrose overnight, and frozen in OCT (Sakura) on dry ice. 7 μm sections were obtained using a cryostat CM-3050 (Leica). […]

B1: Cy5-MUB70: Cy5-labelled MUB70 polypeptide, labelled via Cy5 maleimide on N-terminal cysteine (conjugate)
peptide: CVHVQYIDGETDQMLRQDDLDGYTDETIPYSTAEGIKKFEGDGYELFKDNFPAGEKFDNDDTNDQFYTVIF
Question: Which cell viability (HT-29 MTX cells) does the source give for B1 here?
Answer: Its cell viability is “do not affect significantly cell viability”.

Question: What about the cell viability (Hela cells) of the same molecule?
Answer: The cell viability was “do not affect significantly cell viability”.

Question: And the “colocalization with Muc2” value [1]?
Answer: The value was “colocalization detection of Muc2 and Cy5-MUB70”.

Question: And the colonic mucus staining (guinea pig colonic mucus)?
Answer: The colonic mucus staining was “confirmed”.

— patent US10138280B2, “Polypeptides targeting glycosylated MUC2 proteins, methods of synthesis, their nucleic acids and uses thereof” (INSTITUT PASTEUR, priority 2011, dated 2018)
